In paper PMC11594380:

Molecular target: SARS-CoV-2 Wuhan spike receptor-binding domain (RBD), His-tagged (SARS-CoV-2) (UniProt P0DTC2)
Assay: ELISA

WTL_3H, wild-type-like tri-helical ACE2 fragment (from UniProt Q9BYF1 18-805) (domain or fragment)
EC50: 253 nM
Kd: 192 nM
